# Experimental data from publication PMC8138767, “Intrinsically disordered substrates dictate SPOP subnuclear localization and ubiquitination activity” (The Journal of Biological Chemistry, 2021).
# Key:
# [1] = In vitro phase separation of Pdx1; type: physicochemical
# [2] = test system: SPOP-mediated ubiquitination in T-REx-293 cells; test: SPOP-mediated ubiquitination of Pdx1 variants (Ni-NTA pulldown, immunoblot); type: cell-based; settings: SPOP–myc and GFP–Pdx1 coexpressed 24 h, then 20 μM MG132 or DMSO for 4 h, immunoblot (Fig. 6C)
# Procedure: We next sought to determine whether SPOP-driven ubiquitination of Pdx1 could occur outside of previously implicated droplets. Given the SPOP relocalization phenotype that we observe in cells that express SPOP and Pdx1, we hypothesized that the ubiquitination activity was occurring in the diffuse nucleoplasm and that optimal activity requires both SB sites. To test this hypothesis, we performed in cell ubiquitination assays with GFP–Pdx1 variants. SPOP–myc and GFP–Pdx1 were coexpressed for 24 h in T-REx-293 cells, followed by a 4-h treatment with 20 μM MG132 or dimethyl sulfoxide. Proteins modified with His-ubiquitin were enriched by pulldown on nickel-nitrilotriacetic acid (Ni-NTA) resin.
# A plasmid encoding full-length human Pdx1 (amino acids 1-283) in pcDNA3.1 with a C-terminal GFP tag was purchased from GenScript. Full-length mouse SPOP (identical to the human sequence) with a V5 epitope tag in pcDNA3 was generated previously ([21]). The coding sequence for full-length mouse SPOP was inserted into pcDNA4/TO/myc (Invitrogen) for the T-REx system. pcDNA3-myc-CUL3 (cat no. 19893) and pcDNA–HA2–ROC1 (Rbx1) (cat no. 19897) were obtained from Addgene. pcDNA3 containing His-ubiquitin was a gift from Wenyi Wei.
# Ubiquitination and Western blots
# T-REx-293 cells (Invitrogen) were seeded at a density of 0.8 × 10^6 per well in 6-well plates (tissue culture–treated plates (cat. no 3516, Corning)). After 24 h, cells were transfected with plasmids encoding Pdx1–GFP, SPOP–myc, His–ubiquitin, HA–Rbx1, and myc–CUL3 (as indicated) using the Qiagen Effectene transfection reagent. 24 h after transfection, the cells were treated with either dimethyl sulfoxide or 20 μM MG132 for 4 h before being harvested. Cells were lysed in buffer A (6 M guanidine HCl, 100 mM sodium phosphate, pH 8.0, and 10 mM imidazole). The lysates were sonicated, cleared, and incubated with Ni-NTA Agarose (Qiagen) for 3 h at RT, followed by 16 h at 4 °C. The beads were washed twice with buffer A and twice with a buffer composed of 1:3 buffer A:buffer T1 (buffer T1: 25 mM Tris HCl, pH 8.0, and 20 mM imidazole). The beads were finally transferred to buffer T1 and then boiled in the SDS-PAGE loading buffer containing 300 mM imidazole. Pdx1 stability assays were performed as described above, except that the cells were not treated with MG132. Cells expressing Pdx1–GFP or a variant were harvested 28 h after transfection, resuspended in 2x SDS-loading dye, and boiled for 5 min before SDS-PAGE analysis.
# All proteins were resolved by SDS-PAGE. Separated proteins were analyzed by immunoblotting using either the ECL or the ECL Select Western blotting detection reagents (Amersham). The antibodies used were mouse anti-Pdx1 used at 1:500 for pulldown or 1:2000 for inputs (clone 26771, MAB2419, R&D Systems), mouse anti-myc (1:250, clone 9E10, Santa Cruz Biotechnology), and rabbit anti-GAPDH (1:8000, clone EPR1689, Abcam). horseradish peroxidase-conjugated secondary antibodies were sourced from Jackson ImmunoResearch Laboratories and used at 1:20,000 dilution (goat anti-rabbit IgG, 111-035-003 and goat anti-mouse, 115-035-003).
# SPOP28–359 = target: T1, SPOP28–359 (Homo sapiens, UniProt O43791); test: Competition fluorescence anisotropy, displacement of f-Puc from oligomeric SPOP28–359; type: binding; settings: competition FA; Fig. 5B and Table S4
# T1 construct: A plasmid encoding His–SUMO–SPOP human residues 28 to 359; His-SUMO (N, cleaved yes); made in house; host or cells: E. coli Rosetta BL-21(DE3)
# T1 sequence (O43791 28-359): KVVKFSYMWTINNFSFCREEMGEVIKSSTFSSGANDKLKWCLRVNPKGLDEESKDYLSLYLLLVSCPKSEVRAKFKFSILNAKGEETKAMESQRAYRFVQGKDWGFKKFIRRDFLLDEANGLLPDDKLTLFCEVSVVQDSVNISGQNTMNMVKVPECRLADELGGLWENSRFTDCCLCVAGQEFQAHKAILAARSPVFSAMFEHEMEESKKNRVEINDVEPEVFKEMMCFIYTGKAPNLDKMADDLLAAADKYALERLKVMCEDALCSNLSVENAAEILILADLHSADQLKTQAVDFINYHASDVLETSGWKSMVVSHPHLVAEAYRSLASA
# From the text: An Escherichia coli codon-optimized DNA sequence encoding amino acids 205 to 283 of the human Pdx1 sequence (Pdx1-C) in the multiple cloning site of pET49b(+) was purchased from GeneArt (Thermo Fisher). The pET49b(+) backbone encodes for N-terminal glutathione S-transferase and 6X His tags, followed by a 3C protease recognition motif. In all experiments described herein, a mutant containing an exogenous tryptophan at the N terminus of the human Pdx1-C sequence was used for the purposes of quantitation. Mutations in Pdx1-C were generated by Q5 site-directed mutagenesis (New England Biolabs) with primers designed on NEBbasechanger.com according to the manufacturer protocol. […]
# All FA experiments were conducted in 50 mM sodium phosphate, pH 6.5, 50 mM sodium chloride, 5 mM DTT, 1% BSA, and 0.01% Triton X-100. In all experiments, the source of fluorescence signal was f-Puc purchased from GenScript, at a final concentration of 40 nM. […] The fluorescence polarization of each well was measured (from which FA was calculated) using either a TECAN Infinite M1000 Pro or BioTek Synergy 4 fluorometer. […] FA data points were fit to a complete competitive binding model ([23]) to determine dissociation constants using in-house Python scripts (see Quantification and statistical analysis). […]
substance,measurement,setting,value
Pdx1: full-length human Pdx1 (amino acids 1-283) with a C-terminal GFP tag,in vitro phase separation,[1],do not observe in vitro phase separation
same,ubiquitination of Pdx1 variant,[2]; listed as GFP–Pdx1–WT,is ubiquitinated in cells
same,ubiquitination of Pdx1 variant,[2]; listed as Pdx1–WT,robust polyubiquitination
same,enhancement in binding affinity to oligomeric SPOP28–359 compared with SPOP–MATH,SPOP28–359,~10 fold
